The target of this test is T1, human ROBO2 (pCI-hROBO2-transfected HEK293 cells) (human).
T1 chain: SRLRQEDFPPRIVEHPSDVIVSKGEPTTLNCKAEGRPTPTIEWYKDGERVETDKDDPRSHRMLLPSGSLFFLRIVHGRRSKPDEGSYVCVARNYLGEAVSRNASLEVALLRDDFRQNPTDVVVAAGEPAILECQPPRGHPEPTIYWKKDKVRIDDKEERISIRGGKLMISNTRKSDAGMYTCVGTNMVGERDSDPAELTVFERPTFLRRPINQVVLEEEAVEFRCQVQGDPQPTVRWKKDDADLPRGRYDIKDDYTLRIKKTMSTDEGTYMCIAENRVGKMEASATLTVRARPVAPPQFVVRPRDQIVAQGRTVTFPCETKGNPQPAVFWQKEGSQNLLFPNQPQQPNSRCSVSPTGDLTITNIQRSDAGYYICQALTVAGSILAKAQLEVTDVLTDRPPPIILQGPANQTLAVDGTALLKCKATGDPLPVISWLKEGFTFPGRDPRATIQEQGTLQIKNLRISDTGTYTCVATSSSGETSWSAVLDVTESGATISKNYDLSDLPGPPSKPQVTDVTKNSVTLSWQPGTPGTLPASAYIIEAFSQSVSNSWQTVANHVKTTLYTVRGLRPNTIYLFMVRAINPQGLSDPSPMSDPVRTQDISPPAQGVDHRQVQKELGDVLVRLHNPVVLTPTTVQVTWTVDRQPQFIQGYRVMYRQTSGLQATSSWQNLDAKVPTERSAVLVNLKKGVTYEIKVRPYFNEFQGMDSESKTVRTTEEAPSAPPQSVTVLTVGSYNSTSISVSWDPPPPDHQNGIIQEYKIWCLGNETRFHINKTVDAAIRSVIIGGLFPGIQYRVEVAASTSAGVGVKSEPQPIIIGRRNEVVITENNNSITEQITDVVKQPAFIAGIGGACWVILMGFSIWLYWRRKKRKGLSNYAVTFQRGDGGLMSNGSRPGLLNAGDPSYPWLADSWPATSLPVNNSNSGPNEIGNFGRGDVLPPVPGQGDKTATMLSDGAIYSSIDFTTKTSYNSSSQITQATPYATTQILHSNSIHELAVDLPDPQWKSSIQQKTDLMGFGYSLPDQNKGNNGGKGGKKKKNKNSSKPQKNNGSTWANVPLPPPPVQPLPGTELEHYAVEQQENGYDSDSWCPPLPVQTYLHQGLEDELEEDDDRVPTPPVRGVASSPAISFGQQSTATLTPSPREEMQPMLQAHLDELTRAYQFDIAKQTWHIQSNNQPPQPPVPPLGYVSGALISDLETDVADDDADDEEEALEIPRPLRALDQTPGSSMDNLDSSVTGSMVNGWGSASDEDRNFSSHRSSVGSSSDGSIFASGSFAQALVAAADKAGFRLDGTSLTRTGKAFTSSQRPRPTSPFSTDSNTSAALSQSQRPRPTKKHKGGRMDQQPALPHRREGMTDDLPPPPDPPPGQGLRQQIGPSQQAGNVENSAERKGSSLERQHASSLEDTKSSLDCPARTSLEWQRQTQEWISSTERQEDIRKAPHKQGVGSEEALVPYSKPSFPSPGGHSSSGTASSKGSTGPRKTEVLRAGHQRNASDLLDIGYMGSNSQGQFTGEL
As to the kind of experiment: flow cytometry, HEK293 cells transfected with pCI-hROBO2, anti-mouse IgG FITC; control histogram IgG. As to the method:
HEK293 cells were inoculated at a concentration of 1.2×10⁶ cells/dish or 1.5×10⁶ cells/dish to a 60-mm dish (manufactured by Corning Inc.) and cultured overnight in a DMEM medium containing 10% FBS at 37° C. under 5% CO₂ conditions. On the next day, the HEK293 cells were transfected with pCI-hROBO4, pCI-FLAG-hROBO1, pCI-hROBO2, or pCI-hROBO3 using FuGENE6 Transfection Reagent and further cultured overnight at 37° C. under 5% CO₂ conditions. On the next day, the expression vector-transfected cells were treated with TrypLE Express (manufactured by Life Technologies Corp.), washed with PBS containing 5% FBS, and then suspended in PBS containing 5% FBS. The obtained cell suspension was used in flow cytometry analysis.
Each cell suspension prepared in 4)-4-1 was centrifuged, and the supernatant was removed. […] Data was analyzed using Flowjo. The histogram of FITC fluorescence intensity was prepared. The antibody was determined to bind in a specific manner when the histogram of MAb1 was shifted to a stronger fluorescence intensity region compared with the histogram of the negative control Mouse IgG1 or Mouse IgG2a. […]
(In general: In flow cytometry, cells or beads pass a laser one at a time.)

B1: anti-ROBO4 mouse monoclonal antibody MAb1 (antibody, mouse IgG1, V domains shown)
VH: EVQLVESGGGLVKPGGSLKLSCAASGFTFSTYAMSWVRQTPEKRLEWVATISNGGTYTYYPDSVKGRFTISRDNAENTLYLQMSSLRSEDTAMYFCARLIYYDYLDYWGHGTTLTVSS
VL: DAVMTQTPLSLPVSLGDQASISCRSSQSLENSNGNTYLNWYFQKPGQSPQLLIYRVSNRFSGVLDRFSGSGSGTDFTLKISRVEAEDFGVYFCLQVTHVPWTFGGGTKLEIKR
notes: Mouse IgG1 (gamma1), kappa light chain, purified from hybridoma supernatant; also called parent antibody MAb1
Turning to B1, the binding result was “no binding (tested: 10 µg/mL)”.

Source of the values: patent publication US20150098945A1 (Daiichi Sankyo, published 2015).
